Where two headings read alike, the source gives them in different places.
Legend:
[1] = biological target: T1, recombinant human IGF-II (Insulin-like Growth Factor II) (human, UniProt P01344 25-91, biotinylated (Biotinyl-IGF-II, GroPep) where immobilised in SPR, site not stated; not biotinylated in ITC and as SPR analyte); assay: SPR, steady-state KD relative to wild type
T1 construct: also called IGF2; IGF-2
Procedure, shortened: (§1)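 Domain 11 proteins were secreted from Pichia pastoris, purified by His-tag and injected in duplicate over about 50 RU of biotinylated IGF-II captured on a streptavidin Sensor Chip SA in a BIAcore 3000 at 25° C, in HBS-EP at 40 μl/min with 2 min injections. Analyte concentrations spanned 4096–8 nM, or 16384–32 nM for three constructs, and blank-flow-cell and buffer-injection signals were subtracted. Kd was obtained in BIAevaluation by fitting the equilibrium response at each concentration to a steady-state affinity model.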

[2] = biological target: T1, recombinant human IGF-II (Insulin-like …); assay: SPR, IGF-II immobilised, steady state
Procedure, shortened: as §1

[3] = biological target: T1, recombinant human IGF-II (Insulin-like …); assay: ITC, IGF-II titrated into domain 11
Experimental: Calorimetric measurements were performed using a VP-ITC microcalorimeter (MicroCal). All solutions were thoroughly degassed before use by stirring under vacuum. […] The sample cell contained either wild type domain 11 (7 uM) or the E1544A mutant (8 μM), also in HBS-E buffer. To correct for the heat effects of dilution and mixing, reaction heats obtained from a control experiment, in which IGF2 was injected into HBS-E, were subtracted. Calorimetric data were analysed using MicroCal ORIGIN software (version 5.0) supplied with the instrument. Thermodynamic parameters were derived by fitting the binding isotherms to a single-site binding model. Values for dissociation affinity constants (KD) were determined from duplicate experiments.
In order to validate the SPR sensorgram data, ITC was used to assess the binding affinity between domain 11 and IGF-II. The affinity of the E1544A mutant was also assessed by ITC in order to confirm whether use of a second technique agreed as to the apparent increase in affinity (FIG. 6 and Table 6). Titrations were performed using 17×15 μl injections of 40 μM IGF-II (after an initial 7.51 injection) into the reaction cell containing wild type domain 11 or the E1544A mutant. […] The two fold differences may be simply accounted for by the fidelity of both techniques.

[4] = biological target: T1, recombinant human IGF-II (Insulin-like …); assay: SPR, IGF-II immobilised, steady state; remark: listed apart in the source
Experimental: (§2) Duplicate analyte injections were performed at concentrations of 4096, 2048, 1024, 512, 256, 128, 64, 32, 16 and 8 nM.
(§3) Kinetic analysis by Surface Plasmon Resonance (SPR) was conducted on a BIAcore 3000 biosensor (BIAcore, Uppsala, Sweden) at 25° C. in HBS-EP (10 mM HEPES, pH 7.4, 150 mM NaCl, 3 mM EDTA, 0.005% surfactant P20) at a flow rate of 40 μl/min. […] Kinetic experiments consisted of a two minute injection of analyte followed by a 100 s dissociation phase in running buffer, after which the binding surface was regenerated with a 2 minute injection of 2 M MgCl₂. A blank flow cell was used for in-line reference subtraction of changes due to differences in refractive index of running buffer versus sample and a buffer-only injection was used to subtract instrument noise and drift. Injections were performed in duplicate for each concentration and in a randomised order. Kinetic parameters were determined by global fitting of sensorgrams to a two-state (conformational change) binding model using BIAevaluation software version 4.0.1. In all cases the minor component made an insignificant contribution to the overall affinity and as such only the kinetic parameters of the major binding component were used. For each interaction the dissociation affinity constant (KD) was also calculated by fitting of the response of each concentration at equilibrium to a steady-state affinity model using BIAevaluation.

[5] = biological target: T1, recombinant human IGF-II (Insulin-like …); assay: SPR, IGF-II immobilised, kinetic fit
Procedure, shortened: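 Domain 11 proteins made in Pichia pastoris and purified by His-tag were passed in duplicate, in random order, over ~50 RU of biotinylated IGF-II bound to a streptavidin Sensor Chip SA on a BIAcore 3000 (25° C, HBS-EP, 40 μl/min, 2 min injections, 100 s dissociation, 2 M MgCl₂ regeneration), at 4096–8 nM, or 16384–32 nM for three constructs. Kinetic rate constants and Kd were derived by global sensorgram fitting in BIAevaluation 4.0.1, with blank-flow-cell and buffer-injection signals subtracted first.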

[6] = biological target: T1, recombinant human IGF-II (Insulin-like …); assay: SPR (Biacore)
[7] = biological target: T1, recombinant human IGF-II (Insulin-like …); assay: SPR, steady-state KD relative to wild type; remark: listed apart in the source
Experimental: as §2, §3

[8] = biological target: T1, recombinant human IGF-II (Insulin-like …); assay: SPR, IGF-II immobilised, kinetic fit; remark: listed apart in the source
Experimental: as §2, §3

T1 sequence (P01344 25-91 limits assumed): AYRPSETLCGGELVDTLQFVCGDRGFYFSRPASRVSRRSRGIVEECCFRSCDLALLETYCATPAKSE

Relative Affinity [1]	Kd [2] [nM]	Kd [3] [nM]	Kd [4] [nM]	Kd [5] [nM]	koff [5] [s⁻¹]	kon [5] [M⁻¹ s⁻¹]	Kd [6] [nM]	Relative Affinity [7]	Kd [8] [nM]	koff [8] [s⁻¹]	kon [8] [M⁻¹ s⁻¹]	Binder
1 fold (wild type = 1.00)	103	150	103	119	0.0787	662000	103	1 fold (wild type = 1.00)	102	0.053	525000	wild type IGF2R domain 11 (amino acids 1511-1650) with C-terminal His6 tag, from Pichia pastoris (receptor, also called WT; wild type domain 11) NEHDDCQVTNPSTGHLFDLSSLSGRAGFTAAYSEKGLVYMSICGENENCPPGVGACFGQTRISVGKANKRLRYVDQVLQLVYKDGSPCPSKSGLSYKSVISFVCRPEAGPTNRPMLISLDKQTCTLFFSWHTPLACEQATHHHHHH
2.79 fold (wild type = 1.00)	37	81.4	37	45.5	0.0558	1.23e+06	37	2.79 fold (wild type = 1.00)	35.9	0.033	934000	IGF2R domain 11 E1544A (amino acids 1511-1650, C-terminal His6 tag, from Pichia pastoris) (receptor) NEHDDCQVTNPSTGHLFDLSSLSGRAGFTAAYSAKGLVYMSICGENENCPPGVGACFGQTRISVGKANKRLRYVDQVLQLVYKDGSPCPSKSGLSYKSVISFVCRPEAGPTNRPMLISLDKQTCTLFFSWHTPLACEQATHHHHHH
6.12 fold (wild type = 1.00)	16.9	26.4	16.9	20.5	0.0406	2.02e+06	16.9	6.12 fold (wild type = 1.00)	15.2	0.023	1.52e+06	IGF2R domain 11 E1544K (amino acids 1511-1650, C-terminal His6 tag, from Pichia pastoris) (receptor, also called enhanced mutant) NEHDDCQVTNPSTGHLFDLSSLSGRAGFTAAYSKKGLVYMSICGENENCPPGVGACFGQTRISVGKANKRLRYVDQVLQLVYKDGSPCPSKSGLSYKSVISFVCRPEAGPTNRPMLISLDKQTCTLFFSWHTPLACEQATHHHHHH
